For experiment [1], the target named is T1, monkey LAG-3 (full length, on the cell surface) (monkey, UniProt P18627 24-525 (human entry)).
T1 construct: also called HEK293-cLAG-3; monkey LAG-3 protein on the cell surface
T1 chain: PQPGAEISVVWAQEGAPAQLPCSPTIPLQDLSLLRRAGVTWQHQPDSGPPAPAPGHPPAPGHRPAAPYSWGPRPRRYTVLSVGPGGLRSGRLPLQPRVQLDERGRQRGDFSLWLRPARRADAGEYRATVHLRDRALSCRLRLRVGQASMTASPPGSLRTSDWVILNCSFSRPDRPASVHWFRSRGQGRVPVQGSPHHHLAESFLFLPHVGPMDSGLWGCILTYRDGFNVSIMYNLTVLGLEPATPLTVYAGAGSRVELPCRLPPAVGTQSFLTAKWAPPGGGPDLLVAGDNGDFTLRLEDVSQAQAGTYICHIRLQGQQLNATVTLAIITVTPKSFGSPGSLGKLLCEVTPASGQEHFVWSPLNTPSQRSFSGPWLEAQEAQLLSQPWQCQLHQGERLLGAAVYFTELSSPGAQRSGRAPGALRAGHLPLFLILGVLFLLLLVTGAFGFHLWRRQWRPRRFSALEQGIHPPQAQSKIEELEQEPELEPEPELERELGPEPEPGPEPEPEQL
Kind of experiment: FACS, HEK293-cLAG-3; 0.000 nM. The source says: (§1) The pIRES plasmid with the monkey-derived full-length gene was transfected into the HEK293 cell line to construct a HEK293 stable cell line containing monkey LAG-3 (herein referred to as HEK293-cLAG-3 stable cell line). The HEK293-hLAG-3 stable cell line and HEK293-cLAG-3 stable cell line were expanded in a T-75 cell culture flask to a 90% confluence. The medium was aspirated, and the cells were washed with HBSS (Hanks' Balanced Salt Solution) 1-2 times, then treated with a enzyme-free cell dissociation fluid (Versene solution: Life technology) and the cells were collected. The cells were washed with HBSS buffer for 1-2 times. After counted, the cells were diluted with HBSS to 1-2×10⁶ cells per ml, added with 1% goat serum blocking solution, incubated on ice for 20-30 minutes, and then washed with HBSS for 2 times by centrifugation. The collected cells were suspended in the FACS buffer (HBSS+1% BSA) to 2×10⁶ cells/ml, added as 100 microliters per well to a 96-well FACS reaction plate, added with 100 microliters per well of the antibody sample to be tested, incubated on ice for 1-2 hours. The plate was washed twice with the FACS buffer by centrifugation, added with 100 microliters of fluorescent (Alexa 488)-labeled secondary antibodies per well, and incubated on ice for 0.5-1.0 hours. The plate was washed 2-3 times with FACS buffer by centrifugation, added with 100 μl fixative solution (4% Paraformaldehyde) per well to suspend the cells. 5-10 minutes later, it was washed 1-2 times with FACS buffer by centrifugation. The cells were suspended with 100 microliters of FACS buffer, FACS (FACSCalibur, BD) was used for detection and the results were analyzed.

Experiment [2] concerns the target T2, human LAG-3 protein with hFc tag (hLAG-3-hFc protein) (human, UniProt P18627 23-450).
T2 construct: also called immunogen 1; LAG-3 extracellular domain protein; not shown: human IgG Fc fragment (hFc) of the pCpC vector
T2 sequence: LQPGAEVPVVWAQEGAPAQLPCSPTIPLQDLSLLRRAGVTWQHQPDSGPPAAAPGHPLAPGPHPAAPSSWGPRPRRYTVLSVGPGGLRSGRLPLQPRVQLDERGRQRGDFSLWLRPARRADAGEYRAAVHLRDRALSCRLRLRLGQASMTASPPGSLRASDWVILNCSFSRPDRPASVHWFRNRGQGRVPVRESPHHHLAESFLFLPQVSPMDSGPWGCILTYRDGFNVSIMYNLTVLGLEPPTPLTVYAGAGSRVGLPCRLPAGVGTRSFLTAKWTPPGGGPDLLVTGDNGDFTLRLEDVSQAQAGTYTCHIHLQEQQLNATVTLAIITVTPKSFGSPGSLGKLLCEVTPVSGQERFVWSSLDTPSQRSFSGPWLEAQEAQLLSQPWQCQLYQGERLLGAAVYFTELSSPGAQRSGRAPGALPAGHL
Kind of experiment: ELISA, hLAG-3-hFc coated; 66.6670 nM. How it is done:
The plate was sealed with plastic film and incubated overnight at 4° C. The plate was washed 2 times with the plate washing solution (PBS+0.01% Tween20) on the next day, and added with the blocking solution (PBS+0.01% Tween20+1% BSA) and blocked at room temperature for 1-2 hours. The blocking solution was poured out, and the plate was added with 50-100 μl of the antibody sample to be tested to each well, incubated at 37° C. for 1-2 hours, and washed 2-3 times with a plate washing solution (PBS+0.01% Tween20). HRP (horseradish peroxidase) labeled secondary antibody was added, and the plate was incubated at 37° C. for 1-2 hours, and washed 2-3 times with a plate washing solution (PBS+0.01% Tween20). 100 μl of TMB substrate was added to each well. After incubated at room temperature for 15-30 minutes, the plate was added with 100 μl of stop solution (1.0N HCl) to each well.

The target of experiment [3] is T3, monkey LAG-3 on cells (HEK293-cLAG-3 stable cell line) (monkey, UniProt P18627 24-525 (human entry)).
T3 construct: Full-length monkey (Chinese monkey) LAG-3 gene expressed on HEK293 cells
T3 chain: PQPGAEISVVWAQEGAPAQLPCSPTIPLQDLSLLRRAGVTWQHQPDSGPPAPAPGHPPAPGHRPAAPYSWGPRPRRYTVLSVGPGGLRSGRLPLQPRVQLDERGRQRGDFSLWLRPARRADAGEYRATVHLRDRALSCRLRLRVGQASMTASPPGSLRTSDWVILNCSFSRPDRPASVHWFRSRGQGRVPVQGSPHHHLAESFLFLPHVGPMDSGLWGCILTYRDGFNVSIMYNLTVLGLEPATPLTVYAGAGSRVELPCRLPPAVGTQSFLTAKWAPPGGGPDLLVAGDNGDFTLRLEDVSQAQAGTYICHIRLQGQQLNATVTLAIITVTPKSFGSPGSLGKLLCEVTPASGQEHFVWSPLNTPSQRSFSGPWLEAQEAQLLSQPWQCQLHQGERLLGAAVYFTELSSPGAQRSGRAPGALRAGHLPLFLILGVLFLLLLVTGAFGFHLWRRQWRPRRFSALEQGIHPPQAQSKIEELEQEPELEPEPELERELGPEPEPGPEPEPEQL
Description: FACS, HEK293-cLAG-3, antibody 0.000 nM.
Text: as §1

B1: 405B8H3 (mouse antibody purified from hybridoma) (antibody, V domains shown)
VH: QVQLQQSGAELVRPGASVTLSCKASGYTFTDYEMHWVKQTPVHGLEWIGATDPETGNSAYNQKFKGKAIMTADKSSSTAYMELRSLTSEDSAVYYCISTGWNDWGQGTSLTVSS
VL: DIKMTQSPSSMYASLGERVTITCKASQDINSYLSWFQQKPGKSPKTLIYRADRLLDGVPSRFSGSGSGQDYSLTISSLEYGDMGIYYCLQYDEFPYTFGGGTKLEIK
notes: also called mAb103-405B8H3; 405B81-13
As for B1, in experiment [1], the Mean fluorescence intensity turned out to be 3.9 MFI.

B2: 105F1E10 (LAG-3 mouse-human chimeric antibody) (antibody, V domains shown)
VH: EVQLQQSGPELVKPGASVKMSCRASGYTFTDFKMHWMKQSHGKSLEWIGYIAPNNGGTAYNQKFRGKATLTVNESSNTAYMELRSLTSEDSAVYYCVDWDDVDYWGQGTTLTVSS
VL: DIKMTQSPSSMYASLGERVTITCKASQDINSYLSWFQQKSGKSPKTLIYRANRLVDGVPSRFSGSGSGQDYSLTISSLEYEDMGIYYCLQYVEFPLTFGAGTKLELK
The molecule B2 showed an OD450 in experiment [2] of 3.6 OD450.

B3: 105F1E10 (mouse antibody purified from hybridoma) (antibody, V domains shown)
VH: EVQLQQSGPELVKPGASVKMSCRASGYTFTDFKMHWMKQSHGKSLEWIGYIAPNNGGTAYNQKFRGKATLTVNESSNTAYMELRSLTSEDSAVYYCVDWDDVDYWGQGTTLTVSS
VL: DIKMTQSPSSMYASLGERVTITCKASQDINSYLSWFQQKSGKSPKTLIYRANRLVDGVPSRFSGSGSGQDYSLTISSLEYEDMGIYYCLQYVEFPLTFGAGTKLELK
notes: also called mAb009-105F1E10
As for B3, the Mean fluorescence intensity in experiment [1] came to 3.9 MFI.

B4: 405B8H3 (LAG-3 mouse-human chimeric antibody) (antibody, V domains shown)
VH: QVQLQQSGAELVRPGASVTLSCKASGYTFTDYEMHWVKQTPVHGLEWIGATDPETGNSAYNQKFKGKAIMTADKSSSTAYMELRSLTSEDSAVYYCISTGWNDWGQGTSLTVSS
VL: DIKMTQSPSSMYASLGERVTITCKASQDINSYLSWFQQKPGKSPKTLIYRADRLLDGVPSRFSGSGSGQDYSLTISSLEYGDMGIYYCLQYDEFPYTFGGGTKLEIK
notes: also called mouse-human chimeric antibody 405B8H3
With B4, the OD450 in experiment [2] was found to be 3.57 OD450.

B5: 409B11E12 mouse-human chimeric antibody (antibody, V domains shown)
VH: QVQLQQSGAELVRPGASVTLSCKASGYTFTDYEMHWVKQTTVHGLEWIGATDPETSYSAYNQKFKGKAILTADKSSSTAYMELRSLTSEDSAVYYCIATGWNDWGQGTSLTVSS
VL: DLKMTQSPSSMYASLGERVTITCKASQDINSYLSWFQQKPGKSPKTLIYRANRLLDGVPSRFSGSGSGQDYSLTISSLEYEDMGIYYCLQYDEFPYTFGGGTKLEIK
notes: also called mAb104-409B11E12
B5 yielded a Mean fluorescence intensity in experiment [3] of 2.84.

B6: 409D4E10 (LAG-3 mouse-human chimeric antibody) (antibody, V domains shown)
VH: QVQLQQSGAELVRPGASVTLSCKASGNTFTDYEMHWVKQTPVHGLEWIGATDPETDNTAYNQKFKGKAILTTDKSSSTAYMELRSLTSEDSAVYYCITSGWNDWGQGTSLTVSS
VL: DIKMTQSPSSMYASLGERVTITCKASQDINSYLSWFQQKPGKSPKTLIYRANRLLDGVPSRFSGSGSGQDYSLTISSLEYEDMGIYYCLQYNEFPYTFGGGTKLEIK
As to B6, in experiment [2], the OD450 is 3.73 OD450.

B7: 409D4E10 (mouse antibody purified from hybridoma) (antibody, V domains shown)
VH: QVQLQQSGAELVRPGASVTLSCKASGNTFTDYEMHWVKQTPVHGLEWIGATDPETDNTAYNQKFKGKAILTTDKSSSTAYMELRSLTSEDSAVYYCITSGWNDWGQGTSLTVSS
VL: DIKMTQSPSSMYASLGERVTITCKASQDINSYLSWFQQKPGKSPKTLIYRANRLLDGVPSRFSGSGSGQDYSLTISSLEYEDMGIYYCLQYNEFPYTFGGGTKLEIK
notes: also called mAb112-409D4E10
B7 showed a Mean fluorescence intensity in experiment [1] of 3 MFI.

B8: 409D4E10 mouse-human chimeric antibody (antibody, V domains shown)
VH: QVQLQQSGAELVRPGASVTLSCKASGNTFTDYEMHWVKQTPVHGLEWIGATDPETDNTAYNQKFKGKAILTTDKSSSTAYMELRSLTSEDSAVYYCITSGWNDWGQGTSLTVSS
VL: DIKMTQSPSSMYASLGERVTITCKASQDINSYLSWFQQKPGKSPKTLIYRANRLLDGVPSRFSGSGSGQDYSLTISSLEYEDMGIYYCLQYNEFPYTFGGGTKLEIK
notes: also called mAb112-409D4E10
For the molecule B8, the Mean fluorescence intensity in experiment [3] was 2.99.

B9: 409B11E12 (mouse antibody purified from hybridoma) (antibody, V domains shown)
VH: QVQLQQSGAELVRPGASVTLSCKASGYTFTDYEMHWVKQTTVHGLEWIGATDPETSYSAYNQKFKGKAILTADKSSSTAYMELRSLTSEDSAVYYCIATGWNDWGQGTSLTVSS
VL: DLKMTQSPSSMYASLGERVTITCKASQDINSYLSWFQQKPGKSPKTLIYRANRLLDGVPSRFSGSGSGQDYSLTISSLEYEDMGIYYCLQYDEFPYTFGGGTKLEIK
notes: also called mAb104-409B11E12
The molecule B9 came in with a Mean fluorescence intensity in experiment [1] of 3 MFI.

B10: 409B11E12 (LAG-3 mouse-human chimeric antibody) (antibody, V domains shown)
VH: QVQLQQSGAELVRPGASVTLSCKASGYTFTDYEMHWVKQTTVHGLEWIGATDPETSYSAYNQKFKGKAILTADKSSSTAYMELRSLTSEDSAVYYCIATGWNDWGQGTSLTVSS
VL: DLKMTQSPSSMYASLGERVTITCKASQDINSYLSWFQQKPGKSPKTLIYRANRLLDGVPSRFSGSGSGQDYSLTISSLEYEDMGIYYCLQYDEFPYTFGGGTKLEIK
Take B10: the OD450 in experiment [2] worked out at 3.59 OD450.

B11: 556F6B8 (mouse antibody purified from hybridoma) (antibody, V domains shown)
VH: RVQLKQSGPGLVQPSQSLSITCTVSGFSLIKYGVHWVRQSPGEGLEWLGVIWRGGITDYNAAFMSRLSITKDNSKSQVFFKMNSLQADDTAIYYCAKWDGPLAMDYWGQGTSVTVSS
VL: DIVMTQSHKFLSTSVGDRVSITCKASQDVGTTVAWYQQKPGQSPKLLIYWASTRHTGVPDRFTGSGSGTDFTLTISNVQSEDLADYFCQQYSSYPYTFGGGTKLEIK
notes: also called mAb123-556F6B8
Regarding B11, in experiment [1], the Mean fluorescence intensity was 3.4 MFI.

B12: 556F6B8 (LAG-3 mouse-human chimeric antibody) (antibody, V domains shown)
VH: RVQLKQSGPGLVQPSQSLSITCTVSGFSLIKYGVHWVRQSPGEGLEWLGVIWRGGITDYNAAFMSRLSITKDNSKSQVFFKMNSLQADDTAIYYCAKWDGPLAMDYWGQGTSVTVSS
VL: DIVMTQSHKFLSTSVGDRVSITCKASQDVGTTVAWYQQKPGQSPKLLIYWASTRHTGVPDRFTGSGSGTDFTLTISNVQSEDLADYFCQQYSSYPYTFGGGTKLEIK
notes: also called 556F8B8
In the case of B12, the OD450 in experiment [2] is 3.69 OD450.
